PMC10954664

Target: Cysless ATL1_(cyto)-K400C (human) (UniProt Q8WXF7)
Assay: single-molecule photobleaching step counting (TIRF); LD655-labelled, biotinylated ATL1cyto-K mixed at ~2 μM with 1 mM GTPγS or GDP/AlF4-, diluted and immobilised (~0.3 nM) in a streptavidin-coated microfluidic chamber

“Cysless ATL1_(cyto)-K400C (from UniProt Q8WXF7 1-447) (domain or fragment)” was tested, and the stoichiometry N was 2.
